Results on two molecules are retold here after article PMC2929457 (Nature structural & molecular biology, 2010).

The target in the assay is T1, His-SUMOSTAR-FANCD2(1-762) (Drosophila melanogaster) (Drosophila melanogaster, UniProt Q8MYL1 1-762).
T1 sequence (looked up): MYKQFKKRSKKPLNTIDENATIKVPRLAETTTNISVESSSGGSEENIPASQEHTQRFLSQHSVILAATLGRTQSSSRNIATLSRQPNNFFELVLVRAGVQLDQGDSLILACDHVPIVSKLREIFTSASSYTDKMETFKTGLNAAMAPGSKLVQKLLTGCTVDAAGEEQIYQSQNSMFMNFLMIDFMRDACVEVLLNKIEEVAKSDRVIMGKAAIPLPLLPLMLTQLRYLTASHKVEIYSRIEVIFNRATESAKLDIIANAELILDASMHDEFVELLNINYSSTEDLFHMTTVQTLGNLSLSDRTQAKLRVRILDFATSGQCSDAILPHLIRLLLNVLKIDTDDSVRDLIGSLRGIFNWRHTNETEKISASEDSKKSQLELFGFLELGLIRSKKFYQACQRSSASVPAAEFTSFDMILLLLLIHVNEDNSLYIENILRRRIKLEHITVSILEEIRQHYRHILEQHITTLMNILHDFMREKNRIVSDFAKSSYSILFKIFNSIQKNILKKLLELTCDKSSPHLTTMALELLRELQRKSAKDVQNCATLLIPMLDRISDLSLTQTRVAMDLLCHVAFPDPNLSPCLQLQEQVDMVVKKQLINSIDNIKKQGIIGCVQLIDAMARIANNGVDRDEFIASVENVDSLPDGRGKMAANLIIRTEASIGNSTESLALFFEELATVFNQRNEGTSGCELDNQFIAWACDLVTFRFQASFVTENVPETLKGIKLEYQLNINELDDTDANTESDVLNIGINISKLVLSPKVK
Kind of assay: pull-down.

B1: FANCL DRWD-RING (residues 105-381) (domain or fragment, Drosophila melanogaster, UniProt Q8T913 105-381, looked up)
chain: LCREGNIYYDILALYKSNEYCLQVDEACSMIRFSEFTDFEQHYLELKIPSLLLLDHSLPDCVSLGEMLTKSAGNLEEALNLFRKLLEDLRPFYDNFMDIDELCHVLQPSPISSKHKTRLFPLKDRVYLKLTIADPFACIASMSLKIIGPTEEVARLRHVLSDGLSNWDSEMNIHKNLLRMFDLCYFPMPDWSDGPKLDEEDNEELRCNICFAYRLDGGEVPLVSCDNAKCVLKCHAVCLEEWFKTLMDGKTFLEVSFGQCPFCKAKLSTSFAALLND
B1: the binding result is recorded as “binds”.

B2: Drosophila melanogaster FANCL, full length (enzyme, UniProt Q8T913 1-381, looked up)
chain: MESNEDVERLLCQKYPGLAAELQPSGACIIRGVLGSEDTWRRLKLYLPHHPALHGFQLYVQESLEYKLYTSANLKLQDDWLLEDFLDHLPKILPAQKAPTVPKELCREGNIYYDILALYKSNEYCLQVDEACSMIRFSEFTDFEQHYLELKIPSLLLLDHSLPDCVSLGEMLTKSAGNLEEALNLFRKLLEDLRPFYDNFMDIDELCHVLQPSPISSKHKTRLFPLKDRVYLKLTIADPFACIASMSLKIIGPTEEVARLRHVLSDGLSNWDSEMNIHKNLLRMFDLCYFPMPDWSDGPKLDEEDNEELRCNICFAYRLDGGEVPLVSCDNAKCVLKCHAVCLEEWFKTLMDGKTFLEVSFGQCPFCKAKLSTSFAALLND
For B2, the binding result is “binds”.
